3 substances from paper PMC5626548 can be followed below.

Assay [1] has as its target full-length BICD2 I189F (mouse) (UniProt Q921C5). The assay is described as follows: pull-down.
Assay [2] deals with full-length BICD2 F739I (mouse) (UniProt Q921C5). The assay is described as follows: pull-down.
Assay [3] has as its target full-length BICD2 N188T (mouse) (UniProt Q921C5). The assay is described as follows: pull-down.
For assay [4], the target named is full-length BICD2 S107L (mouse) (UniProt Q921C5). The assay is described as follows: pull-down.
In assay [5] the target is full-length BICD2 (Bicaudal D2), wild type (mouse) (UniProt Q921C5). The assay is described as follows: pull-down.
The target of assay [6] is Rab6a^GTP (Rab6a–Q72L, aa 8–195, KCK motif) linked to liposomes (mouse) (UniProt P35279). The assay is described as follows: fluorescence intensity of BICD2–GFP on liposomes.

As to “cytoplasmic dynein, endogenous in porcine brain lysate (complex)”, the ratio of band intensity, mutant to WT BICD2 (lysate only) in assay [1] was found to be 1.61; in assay [2], 1.95; in assay [3] it was 2.24; in assay [4], 2.44.
Turning to “dynactin, endogenous in porcine brain lysate (from UniProt A0A287B8J2 1-1281) (complex)”, the ratio of band intensity, mutant to WT BICD2 (lysate only) in assay [1] worked out at 1.88; in assay [2], 3.65; in assay [3] it was 3.86; in assay [4], 2.88. The substance also gave a fold increase of the pull-down at the highest Rab6a^GTP concentration in assay [5] of 10 fold.
“full-length BICD2 (Bicaudal D2), wild type (from UniProt Q921C5 1-820) (natural protein)” had a BICD2 molecules per Rab6a^GTP liposome (molecules per liposome) in assay [6] of 6.01.
